# Experimental data published in patent US20230183318A1 (published 2023).
# Residue numbers refer to the chain shown, from its start. Names may count otherwise.
# B1: glycosylated PD-1 variant JY_Q12-2 (Q34N) (receptor)
# chain: LDSPDRPLDPPTISPALLVVTEGDQATFTCSFSNTSKSFVLNWYRISPSQQTDKLAAFPEDRSQPGQDTRFRVTQLPNGRDFHMSVVRARRQDSGTYLCVAISLAPKVQIKESLRAELRVTERRAEVPTAHPSPSPRPACQFQ
# modifications: sugar chain at N34 (N-linked glycosylation site restored, expressed in Expi293F)
# B2: glycosylated PD-1 variant JY_Q12-1 (Q25N) (receptor)
# chain: B1 chain with Q25N, N34Q
# modifications: sugar chain at N25 (N-linked glycosylation site restored, expressed in Expi293F)
# B3: glycosylated PD-1 variant JY_Q12-3 (Q50N) (receptor)
# chain: B1 chain with N34Q, Q50N
# modifications: sugar chain at N50 (N-linked glycosylation site restored, expressed in Expi293F)
# B4: aglycosylated PD-1 variant Q12 (JY_Q12), soluble His-tagged protein (receptor)
# chain: B1 chain with N34Q
# B5: JY-Q12-4 (protein)
# chain: B1 chain with N34Q, Q92N
# B6: Q18 (protein)
# chain: LDSPDRPWNPPTISPALLVVTEGDQATFTCGLPQTSESFVLNWYRIGPSQQMDKLAAFPEDRSQPGQDTRFRVTQLPNGRDFHMSVVRARRQDSGTYLCVAISLAPKVQIKESLRAELRVTERRAEVRTAHPSPSPRSAGQFQ
# B7: Q33 (protein)
# chain: B1 chain with L8W, D9N, N34R, K37E, R88G, R90Q, C140G
# B8: Q10 (protein)
# chain: B6 chain with G31S, P33S, G47S, V87D, T96S, R128P, S138P
# Biological target: T1, PD-L1-streptavidin (UniProt Q9NZQ7 19-238)
# Assay: BLI (BLItz)
# T1 sequence (Q9NZQ7 19-238): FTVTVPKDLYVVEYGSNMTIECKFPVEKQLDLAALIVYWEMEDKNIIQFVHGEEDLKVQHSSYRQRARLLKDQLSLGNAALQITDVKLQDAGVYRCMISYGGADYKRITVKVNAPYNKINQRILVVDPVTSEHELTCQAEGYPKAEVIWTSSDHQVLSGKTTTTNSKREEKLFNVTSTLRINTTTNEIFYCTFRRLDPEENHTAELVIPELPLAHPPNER
row,Kd,Binder
1,0.899 nM,B1
2,7.38 nM,B2
3,3.24 nM,B3
4,11 nM,B4
5,17.3 nM,B5

# Biological target: T1, PD-L1-streptavidin
# Assay: BLI (BLItz)
# Remark: another data set of the same source
row,Kd,Binder
1,46.9 nM,B6
2,35.1 nM,B7
3,50.1 nM,B8
4,5.49 nM,B4

# Biological target: T1, PD-L1-streptavidin
# Assay: BLI (BLItz); Fig. 12
row,Kd,Binder
1,5.49 nM,B4
